This data set concerns the molecule itself. Put plainly: cryo-EM structure.

The text below walks through data of paper PMC7546529 (Nature microbiology, 2020).

B1: portal protein (BBRF1 gene-encoded portal complex) (natural protein)
chain: MFNMNVDESASGALGSSAIPVHPTPASVRLFEILQGKYAYVQGQTIYANLRNPGVFSRQVFTHLFKRAISHCTYDDVLHDWNKFEACIQKRWPSDDSCASRFRESTFESWSTTMKLTVRDLLTTNIYRVLHSRSVLSYERYVDWICATGMVPAVKKPITQELHSKIKSLRDRCVCRELGHERTIRSIGTELYEATKEIIESLNSTFIPQFTEVTIEYLPRSDEYVAYYCGRRIRLHVLFPPAIFAGTVTFDSPVQRLYQNIFMCYRTLEHAKICQLLNTAPLKAIVGHGGRDMYKDILAHLEQNSQRKDPKKELLNLLVKLSENKTISGVTDVVEEFITDASNNLVDRNRLFGQPGETAAQGLKKKVSNTVVKCLTDQINEQFDQINGLEKERELYLKKIRSMESQLQASLGPGGNNPAASAPAAVAAEAASVDILTGSTASAIEKLFNSPSASLGARVSGHNESILNSFVSQYIPPSREMTKDLTELWESELFNTFKLTPVVDNQGQRLYVRYSSDTISILLGPFTYLVAELSPVELVTDVYATLGIVEIIDELYRSSRLAIYIEDLGRKYCPASATGGDHGIRQAPSARGDTEPDHAKSKPARDPPPGAGS
With B1, the stoichiometry N (usually a count of units in the complex or per binding partner) amounted to 12.
